Data on 1 molecule can be found in US20170044257A1 (BRIGHAM AND WOMEN S HOSPITAL, published 2017).

This test concerns the target T1, human alpha-fetoprotein (hAFP) (human, UniProt P02771 19-609).
T1 construct: No signal peptide cleavage site is stated; also called human AFP
T1 sequence: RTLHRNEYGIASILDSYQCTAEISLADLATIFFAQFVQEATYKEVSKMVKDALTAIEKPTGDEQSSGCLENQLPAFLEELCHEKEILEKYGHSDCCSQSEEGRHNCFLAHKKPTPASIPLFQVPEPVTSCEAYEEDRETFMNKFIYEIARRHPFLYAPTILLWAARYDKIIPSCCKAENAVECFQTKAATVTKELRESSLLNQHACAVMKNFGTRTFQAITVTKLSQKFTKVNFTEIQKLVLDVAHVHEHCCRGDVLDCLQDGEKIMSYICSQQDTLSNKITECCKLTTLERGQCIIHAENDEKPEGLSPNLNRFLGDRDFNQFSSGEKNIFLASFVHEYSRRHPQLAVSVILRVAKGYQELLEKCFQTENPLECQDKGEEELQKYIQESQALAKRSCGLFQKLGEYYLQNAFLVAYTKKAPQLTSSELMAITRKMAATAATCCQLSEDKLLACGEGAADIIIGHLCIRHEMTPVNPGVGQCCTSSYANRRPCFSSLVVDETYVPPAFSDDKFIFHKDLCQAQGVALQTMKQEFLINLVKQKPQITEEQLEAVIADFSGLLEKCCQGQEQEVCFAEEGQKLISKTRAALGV
Kind of test: SPR (Biacore 3000), mFcRn/mβ2m on chip, hAFP injected, neutral pH. The method, then:
Surface plasmon resonance was conducted using a Biacore 3000 instrument (GE Healthcare) with CMS sensor chips coupled with recombinant human FcRn & hβ₂m heterodimer protein or mouse FcRn & mβ₂m (1000 RU). The coupling was performed by injecting 25 μg/mL of the protein diluted in 10 mM sodium acetate pH 5.0 using the amine coupling kit (GE Healthcare). Phosphate buffer (67 mM phosphate buffer, 0.15 M NaCl, 0.005% Tween 20) at pH 6.0 or pH 7.4 was used as running buffer. Glycine pH 2.5 was used for regeneration of the flow cells. hAFP (SinoBiological) was injected at 25° C. with a flow rate of 25 μl/min, and data were analyzed using the BIAevaluation 4.1 software where the sensorgrams were zero adjusted and reference cell values subtracted.
In general terms: In SPR one partner is held on a chip, and binding of the other changes the refractive index at the surface.

B1: recombinant mouse FcRn & mβ2m (receptor)
chain: SETRPPLMYHLTAVSNPSTGLPSFWATGWLGPQQYLTYNSLRQEADPCGAWMWENQVSWYWEKETTDLKSKEQLFLEALKTLEKILNGTYTLQGLLGCELASDNSSVPTAVFALNGEEFMKFNPRIGNWTGEWPETEIVANLWMKQPDAARKESEFLLNSCPERLLGHLERGRRNLEWKEPPSMRLKARPGNSGSSVLTCAAFSFYPPELKFRFLRNGLASGSGNCSTGPNGDGSFHAWSLLEVKRGDEHHYQCQVEHEGLAQPLTVDLDSSARSS
b2m: IQKTPQIQVYSRHPPENGKPNILNCYVTQFHPPHIEIQMLKNGKKIPKVEMSDMSFSKDWSFYILAHTEFTPTETDTYACRVKHASMAEPKTVYWDRDM
notes: Coupled to the Biacore chip for SPR; also called mFcRn
For B1, the binding result is “binds”.
